From article PMC5714123, “The SMAD3 transcription factor binds complex RNA structures with high affinity” come the findings set out here.

In general, Kd refers to the constant that tells how readily two partners part at equilibrium.

Data set [1] concerns the target T1, SMAD3 MH1 (Homo sapiens, UniProt P84022 1-132). Nature of the data set: EMSA; Hill 2.1; EMSA: 25 mM Tris-HCl (pH not given for binding buffer; RNA stock pH 7.5), 115 mM KCl, 1 mM MgCl2, 1 mM DTT, 20 ng/ul poly I:C, 0.1 mg/ml BSA, 10% glycerol, on ice 2 h; 0.5x TBE gel at 4 C. The conditions noted are these: protein: recombinant; tags: 6xHis-SUMO cleaved; label: 5' 32P; hairpin with 6x3 internal loop. On the technique in general: Mobility shift assays separate free from complexed probe on a gel.

Data set [2] concerns the target T1, SMAD3 MH1. Nature of the data set: EMSA; Hill 2.5; EMSA: 25 mM Tris-HCl (pH not given for binding buffer; RNA stock pH 7.5), 115 mM KCl, 1 mM MgCl2, 1 mM DTT, 20 ng/ul poly I:C, 0.1 mg/ml BSA, 10% glycerol, on ice 2 h; 0.5x TBE gel at 4 C. The conditions noted are these: protein: recombinant; tags: 6xHis-SUMO cleaved; label: 5' 32P; hairpin with 2x3 internal loop.

The target in data set [3] is T1, SMAD3 MH1. As to the kind of experiment: EMSA; Hill 1.6; EMSA: 25 mM Tris-HCl (pH not given for binding buffer; RNA stock pH 7.5), 115 mM KCl, 1 mM MgCl2, 1 mM DTT, 20 ng/ul poly I:C, 0.1 mg/ml BSA, 10% glycerol, on ice 2 h; 0.5x TBE gel at 4 C. The conditions noted are these: protein: recombinant; tags: 6xHis-SUMO cleaved; label: 5' 32P; hairpin.
The target in data set [4] is T1, SMAD3 MH1. Nature of the data set: EMSA; Hill 1.8; EMSA: 25 mM Tris-HCl (pH not given for binding buffer; RNA stock pH 7.5), 115 mM KCl, 1 mM MgCl2, 1 mM DTT, 20 ng/ul poly I:C, 0.1 mg/ml BSA, 10% glycerol, on ice 2 h; 0.5x TBE gel at 4 C. The conditions noted are these: protein: recombinant, tags: 6xHis-SUMO cleaved.
The target in data set [5] is T1, SMAD3 MH1. Nature of the data set: EMSA; Hill 3.6; EMSA: 25 mM Tris-HCl (pH not given for binding buffer; RNA stock pH 7.5), 115 mM KCl, 1 mM MgCl2, 1 mM DTT, 20 ng/ul poly I:C, 0.1 mg/ml BSA, 10% glycerol, on ice 2 h; 0.5x TBE gel at 4 C. The conditions noted are these: protein: recombinant; tags: 6xHis-SUMO cleaved; label: 5' 32P (EMSA); hairpin.
The target of data set [6] is T1, SMAD3 MH1. Nature of the data set: EMSA; Hill 1.1; EMSA: 25 mM Tris-HCl (pH not given for binding buffer; RNA stock pH 7.5), 115 mM KCl, 1 mM MgCl2, 1 mM DTT, 20 ng/ul poly I:C, 0.1 mg/ml BSA, 10% glycerol, on ice 2 h; 0.5x TBE gel at 4 C. The following applies: protein: recombinant; tags: 6xHis-SUMO cleaved; label: 5' 32P; structured, multi-loop.
In data set [7] the target is T1, SMAD3 MH1. Nature of the data set: EMSA; Hill 2.2; EMSA: 25 mM Tris-HCl (pH not given for binding buffer; RNA stock pH 7.5), 115 mM KCl, 1 mM MgCl2, 1 mM DTT, 20 ng/ul poly I:C, 0.1 mg/ml BSA, 10% glycerol, on ice 2 h; 0.5x TBE gel at 4 C. The conditions noted are these: protein: recombinant; tags: 6xHis-SUMO cleaved; label: 5' 32P; hairpin with 1x5 internal loop.
The target of data set [8] is T1, SMAD3 MH1. As to the kind of experiment: EMSA; Hill 1.9; EMSA: 25 mM Tris-HCl (pH not given for binding buffer; RNA stock pH 7.5), 115 mM KCl, 1 mM MgCl2, 1 mM DTT, 20 ng/ul poly I:C, 0.1 mg/ml BSA, 10% glycerol, on ice 2 h; 0.5x TBE gel at 4 C. The conditions noted are these: protein: recombinant, tags: 6xHis-SUMO cleaved.
The target in data set [9] is T1, SMAD3 MH1. As to the kind of experiment: EMSA; Hill 3.1; EMSA: 25 mM Tris-HCl (pH not given for binding buffer; RNA stock pH 7.5), 115 mM KCl, 1 mM MgCl2, 1 mM DTT, 20 ng/ul poly I:C, 0.1 mg/ml BSA, 10% glycerol, on ice 2 h; 0.5x TBE gel at 4 C. The conditions noted are these: protein: recombinant; tags: 6xHis-SUMO cleaved; label: 5' 32P; hairpin.
Data set [10] deals with T1, SMAD3 MH1. Nature of the data set: EMSA; Hill 3.4; EMSA: 25 mM Tris-HCl (pH not given for binding buffer; RNA stock pH 7.5), 115 mM KCl, 1 mM MgCl2, 1 mM DTT, 20 ng/ul poly I:C, 0.1 mg/ml BSA, 10% glycerol, on ice 2 h; 0.5x TBE gel at 4 C. The following applies: protein: recombinant; tags: 6xHis-SUMO cleaved; label: 5' 32P; hairpin.
Data set [11] addresses T1, SMAD3 MH1. Nature of the data set: EMSA; Hill 2.7; EMSA: 25 mM Tris-HCl (pH not given for binding buffer; RNA stock pH 7.5), 115 mM KCl, 1 mM MgCl2, 1 mM DTT, 20 ng/ul poly I:C, 0.1 mg/ml BSA, 10% glycerol, on ice 2 h; 0.5x TBE gel at 4 C. The following applies: protein: recombinant; tags: 6xHis-SUMO cleaved; label: 5' 32P; hairpin.
The target in data set [12] is T1, SMAD3 MH1. As to the kind of experiment: EMSA; Hill 1.7; EMSA: 25 mM Tris-HCl (pH not given for binding buffer; RNA stock pH 7.5), 115 mM KCl, 1 mM MgCl2, 1 mM DTT, 20 ng/ul poly I:C, 0.1 mg/ml BSA, 10% glycerol, on ice 2 h; 0.5x TBE gel at 4 C. The following applies: protein: recombinant, tags: 6xHis-SUMO cleaved.
For data set [13], the target named is T1, SMAD3 MH1. Nature of the data set: EMSA; Hill 3.2; EMSA: 25 mM Tris-HCl (pH not given for binding buffer; RNA stock pH 7.5), 115 mM KCl, 1 mM MgCl2, 1 mM DTT, 20 ng/ul poly I:C, 0.1 mg/ml BSA, 10% glycerol, on ice 2 h; 0.5x TBE gel at 4 C. The conditions noted are these: protein: recombinant; tags: 6xHis-SUMO cleaved; label: 5' 32P; hairpin with single-stranded flanks.

The target of data set [14] is T1, SMAD3 MH1. As to the kind of experiment: EMSA; Hill 3.0; EMSA: 25 mM Tris-HCl (pH not given for binding buffer; RNA stock pH 7.5), 115 mM KCl, 1 mM MgCl2, 1 mM DTT, 20 ng/ul poly I:C, 0.1 mg/ml BSA, 10% glycerol, on ice 2 h; 0.5x TBE gel at 4 C. The following applies: protein: recombinant; tags: 6xHis-SUMO cleaved; label: 5' 32P; hairpin.
[15] abbreviates: label: 5' 32P, hairpin with 6x3 internal loop.

T1 sequence (P84022 1-132): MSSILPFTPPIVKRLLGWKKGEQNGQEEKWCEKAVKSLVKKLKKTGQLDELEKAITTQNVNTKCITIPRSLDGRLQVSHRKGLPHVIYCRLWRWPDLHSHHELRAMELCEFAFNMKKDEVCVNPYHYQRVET

B1: 17d D4a isolated terminal loop (structured_RNA)
RNA: GGGUCUCGUAUUGCAGAAAUGACACAUCUUGCCCGUAACCAAUCGGGUAAGGUGUGUCAAAUCAAUGCGAGAC
For B1, in the data set with SMAD3 MH1 [1], the Kd worked out at 570 ± 20 nM.

As to GGUCUGGGCGCAGCGCAAGCUGACGGUACAGGCC (structured_RNA) [21 RRE], the Kd with SMAD3 MH1 [2] was found to be 3000 ± 300 nM. With GGGUCUCGUAUUGCAGAAAUAAAUCAAGCGAGAC (structured_RNA) [17c D4a truncation 3], the Kd in the data set with SMAD3 MH1 [3] came out at 1500 ± 300 nM. Take GGACGUACUGCAGACAGUGGGCGUUCGCGCGUACGUCUGUGGGUACGUCC (structured_RNA) [6a hsa-miR-509 central stem]: in the data set with SMAD3 MH1 [4] (label: 5' 32P, hairpin), the Kd turned out to be 2100 ± 300 nM.

B2: 16 30-bp hairpin (structured_RNA)
RNA: GGAUCGAUCGAUCGAUCGGCAUCGAUCGGCUUCGGCCGAUCGAUGCCGAUCGAUCGAUCGAUCC
Turning to B2, the Kd with SMAD3 MH1 [5] stood at 4000 ± 200 nM.

B3: 11 VAI (structured_RNA)
RNA: GGGCACUCUUCCGUGGUCUGGUGGAUAAAUUCGCAAGGGUAUCAUGGCGGACGACCGGGGUUCGAACCCCGGAUCCGGCCGUCCGCCGUGAUCCAUGCGGUUACCGCCCGCGUGUCGAACCCAGGUGUGCGACGUCAGACAACGGGGGAGCGCUC
In the case of B3, in the data set with SMAD3 MH1 [6], the Kd stood at 110 ± 20 nM.

B4: 17e D4a isolated apical loop (structured_RNA)
RNA: GGGUCUCGUAUUGCAGAUGACACAUCUGCCGUAACCAAUCGGGUAAAAGGUGUGUCAUCUGCAAUGCGAGAC
As for B4, in the data set with SMAD3 MH1 [7], the Kd is 400 ± 10 nM.

B5: 18 ai5-gamma D3 (structured_RNA)
RNA: GGGUAUAAAAAGCUAAUGCCAUAUUGUAAUGAUAUGGAUAAGAAUUAUUAUUCUAAAGAUGAAAAUCUGCUAACUUAUACUG
As for B5, in the data set with SMAD3 MH1 [4] (label: 5' 32P (EMSA), four-way junction with bulged stem), the Kd worked out at 190 ± 30 nM.

Turning to GAUACUUGAAACUGUAAGGUUGGCGUAUC (structured_RNA) [20 NF-kB aptamer], the Kd with SMAD3 MH1 [4] (label: 5' 32P, hairpin with 4x3 internal loop) stood at 4400 ± 600 nM.

B6: 19 dsDNA with 1 SBE (dsDNA)
DNA 1: GTATGTCTCAGATGAA
DNA 2: TTCATCTGAGACATAC
Consider B6, for which, in the data set with SMAD3 MH1 [8] (label: 5' 32P on one strand, blunt), the Kd worked out at 190 ± 20 nM. Take GGACGCUUAUCAGACUGAUGUUGUUCGCAACACCAGUCGAUGGGCGUCC (structured_RNA) [1a hsa-miR-21 central stem]: in the data set with SMAD3 MH1 [9], the Kd amounted to 2500 ± 100 nM. On to GGACGCUUAUAAAACUGAUGUUGUUCGCAACACCAGUUUAUGGGCGUCC (structured_RNA) [1b hsa-miR-21 central stem dSBE], for which the Kd with SMAD3 MH1 [10] was 2700 ± 100 nM.

B7: 3c hsa-miR-199a-1 stem loop (structured_RNA)
RNA: GGCCAACCCAGUGUUCAGACUACCUGUUCAGGAGGCUCUCAAUGUGUACAGUAGUCUGCACAUUGGUUAGGCC
For B7, the Kd in the data set with SMAD3 MH1 [8] (label: 5' 32P, hairpin) turned out to be 1250 ± 50 nM.

B8: 9c cel-miR-84 stem loop (structured_RNA)
RNA: GGCAUCUGAGGUAGUAUGUAAUAUUGUAGACUGUCUAUAAUGUCCACAAUGUUUCAACUAACUCGGCUGCC
For the molecule B8, the Kd with SMAD3 MH1 [11] came to 1600 ± 100 nM.

B9: 17a D4a truncation 1 (structured_RNA)
RNA: GGGUCUCGUAUUGCAGAAAUGACAACAUCUUUCGAGGUGGUCAAAUCAAGCGAGAC
As for B9, in the data set with SMAD3 MH1 [12] (setting [15]), the Kd stood at 340 ± 70 nM.

B10: 17 Group II intron D4A (structured_RNA)
RNA: GGGGUCUCGUAUUGCAGAAAUGACAACAUCUGCCGUAACCAAUCGGGUAAAAGGUGGUCAAAUCAAGCGAGAC
On to B10, for which the Kd with SMAD3 MH1 [12] (label: 5' 32P (EMSA), hairpin with 1x5 and 6x3 internal loops) is 190 ± 10 nM.

B11: 10 hsa-miR-21 extended (structured_RNA)
RNA: GGGUGUUUUGCCUACCAUCGUGACAUCUCCAUGGCUGUACCACCUUGUCGGGUAGCUUAUCAGACUGAUGUUGACUGUUGAAUCUCAUGGCAACACCAGUCGAUGGGCUGUCUGACAUUUUGGUAUCUUUCAUCUGACCAUCCAUAUCCAAUGUUCUCAG
In the case of B11, the Kd with SMAD3 MH1 [13] came out at 700 ± 60 nM. On to GGACGUGAGGUAGUAUGUAAGCGUUCGCGCUUUCAACUAACUCGCGUCC (structured_RNA) [9a cel-miR-84 central stem], for which the Kd with SMAD3 MH1 [11] turned out to be 2900 ± 100 nM. In the case of GGACGUACUGCCAGAAGUGGGCGUUCGCGCGUACUCUGGUGGGUACGUCC (structured_RNA) [6b hsa-miR-509 central stem dSBE], in the data set with SMAD3 MH1 [14], the Kd was 3000 ± 300 nM. Take GGGUCUCGUAUUGCAGAAAUGACUUCGGUCAAAUCAAGAGAGAC (structured_RNA) [17b D4a truncation 2]: the Kd with SMAD3 MH1 [4] (setting [15]) is 480 ± 80 nM.
